Eleven molecules from article PMC11772769, “Selective cargo and membrane recognition by SNX17 regulates its interaction with Retriever” (EMBO Reports, 2024) can be followed below.

To fix the notation:
B2: SNX17_(FERM-CT) (amino acids 109-470) (domain or fragment)
chain: TQQVPTEEVSLEVLLSNGQKVLVNVLTSDQTEDVLEAVAAKLDLPDDLIGYFSLFLVREKEDGAFSFVRKLQEFELPYVSVTSLRSQEYKIVLRKSYWDSAYDDDVMENRVGLNLLYAQTVSDIERGWILVTKEQHRQLKSLQEKVSKKEFLRLAQTLRHYGYLRFDACVADFPEKDCPVVVSAGNSELSLQLRLPGQQLREGSFRVTRMRCWRVTSSVPLPSGSTSSPGRGRGEVRLELAFEYLMSKDRLQWVTITSPQAIMMSICLQSMVDELMVKKSGGSIRKMLRRRVGGTLRRSDSQQAVKSPPLLESPDATRESMVKLSSKLSAVSLRGIGSPSTDASASDVHGNFAFEGIGDEDL
B11: MBP-SNX17 H457A (natural protein)
chain: MHFSIPETESRSGDSGGSAYVAYNIHVNGVLHCRVRYSQLLGLHEQLRKEYGANVLPAFPPKKLFSLTPAEVEQRREQLEKYMQAVRQDPLLGSSETFNSFLRRAQQETQQVPTEEVSLEVLLSNGQKVLVNVLTSDQTEDVLEAVAAKLDLPDDLIGYFSLFLVREKEDGAFSFVRKLQEFELPYVSVTSLRSQEYKIVLRKSYWDSAYDDDVMENRVGLNLLYAQTVSDIERGWILVTKEQHRQLKSLQEKVSKKEFLRLAQTLRHYGYLRFDACVADFPEKDCPVVVSAGNSELSLQLRLPGQQLREGSFRVTRMRCWRVTSSVPLPSGSTSSPGRGRGEVRLELAFEYLMSKDRLQWVTITSPQAIMMSICLQSMVDELMVKKSGGSIRKMLRRRVGGTLRRSDSQQAVKSPPLLESPDATRESMVKLSSKLSAVSLRGIGSPSTDASASDVAGNFAFEGIGDEDL
notes: not shown: MBP, N-terminal, kept

Where no end group is shown, it is not given here. The star is where a group is joined. 5FAM = O=C1OC2(c3ccc(O)cc3Oc3cc(O)ccc32)c2ccc(C(=O)*)cc21

What all share (conditions): both partners purified
In test [1] the target is B2. The test can be described thus: fluorescence polarisation. (In general: Fluorescence polarisation rises when a labelled molecule tumbles more slowly, as on binding a larger partner.)
The target in test [2] is T1, Retriever complex (UniProt O14972 1-297; Q9UBQ0 1-182; Q7Z3J2 1-963). The test can be described thus: pull-down; GST pull-down: GST-L2FBR on glutathione agarose, Retriever together with SNX17PX, SNX17 FERM-CT or MBP-SNX17FL; VPS35L band quantified; Coomassie.
Test [3] concerns the target T2, MBP-SNX17 (full-length, wild-type) (UniProt Q15036 1-470).
T2 construct: also called MBP-SNX17FL; WT; not shown: MBP, N-terminal, kept
T2 sequence (looked up): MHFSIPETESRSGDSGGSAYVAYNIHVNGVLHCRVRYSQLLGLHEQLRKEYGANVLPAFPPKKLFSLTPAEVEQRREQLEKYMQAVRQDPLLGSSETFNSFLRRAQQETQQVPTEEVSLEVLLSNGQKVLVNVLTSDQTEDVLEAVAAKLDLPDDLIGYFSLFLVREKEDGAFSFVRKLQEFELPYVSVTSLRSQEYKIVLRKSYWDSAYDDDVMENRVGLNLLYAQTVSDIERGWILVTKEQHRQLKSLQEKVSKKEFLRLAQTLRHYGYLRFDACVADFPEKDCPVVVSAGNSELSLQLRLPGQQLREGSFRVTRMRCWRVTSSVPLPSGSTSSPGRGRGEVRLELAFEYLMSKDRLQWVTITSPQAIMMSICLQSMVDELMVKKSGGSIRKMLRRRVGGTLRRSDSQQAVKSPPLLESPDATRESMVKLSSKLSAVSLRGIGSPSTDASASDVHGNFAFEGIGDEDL
Description: pull-down.

In the next test the target is T3, MBP-SNX17 L470G (UniProt Q15036 1-470, L470G).
T3 construct: not shown: MBP, N-terminal, kept
T3 sequence (looked up): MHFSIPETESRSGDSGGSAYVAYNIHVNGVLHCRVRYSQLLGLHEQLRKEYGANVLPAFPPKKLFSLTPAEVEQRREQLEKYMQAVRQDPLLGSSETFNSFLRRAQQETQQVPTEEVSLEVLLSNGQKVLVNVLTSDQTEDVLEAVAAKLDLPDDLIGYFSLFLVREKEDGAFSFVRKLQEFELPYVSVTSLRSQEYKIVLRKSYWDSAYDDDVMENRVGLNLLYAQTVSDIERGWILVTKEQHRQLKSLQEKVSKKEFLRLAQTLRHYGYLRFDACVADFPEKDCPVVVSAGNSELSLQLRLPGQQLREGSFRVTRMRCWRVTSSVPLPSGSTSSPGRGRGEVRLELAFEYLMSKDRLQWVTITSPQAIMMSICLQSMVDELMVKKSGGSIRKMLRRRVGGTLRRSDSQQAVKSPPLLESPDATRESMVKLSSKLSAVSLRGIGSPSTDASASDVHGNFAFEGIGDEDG
Description: fluorescence polarisation.

The test “MBP-SNX17 H457A” concerns the target B11. The test can be described thus: fluorescence polarisation.
For the next test, the target named is T4, MBP-SNX17 N459A + F462A (UniProt Q15036 1-470, N459A | F462A).
T4 construct: not shown: MBP, N-terminal, kept
T4 sequence (looked up): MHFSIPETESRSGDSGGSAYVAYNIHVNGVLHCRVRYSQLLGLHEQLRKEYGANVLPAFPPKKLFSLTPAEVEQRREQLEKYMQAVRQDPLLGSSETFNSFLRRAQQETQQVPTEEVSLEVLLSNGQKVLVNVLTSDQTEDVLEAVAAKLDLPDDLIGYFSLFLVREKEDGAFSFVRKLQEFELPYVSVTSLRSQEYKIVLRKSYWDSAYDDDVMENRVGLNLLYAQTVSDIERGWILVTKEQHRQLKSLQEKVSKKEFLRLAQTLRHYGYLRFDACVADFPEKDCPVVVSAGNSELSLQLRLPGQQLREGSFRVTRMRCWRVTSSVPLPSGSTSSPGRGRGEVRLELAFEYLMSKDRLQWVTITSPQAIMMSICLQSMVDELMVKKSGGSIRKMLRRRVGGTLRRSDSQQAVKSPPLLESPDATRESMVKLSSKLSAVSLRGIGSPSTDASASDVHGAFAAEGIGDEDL
The test can be described thus: fluorescence polarisation.

Test [4] concerns the target T1, Retriever complex. Description: pull-down.

B1: Peptide APP_(14mer) (peptide)
peptide: 5FAM-QQNGYENPTYKFFE
notes: source: synthetic peptide (GenScript)
A word on the Kd: it is the concentration at which binding is half-saturated. Read a low Kd as a tighter complex. Take B1: the Kd in test [1] came to 19 µM. This lies in the double-digit micromolar range.
Regarding B2, the binding result with Retriever complex [2] is listed as “binds”.

B3: GST-LRP1ICD (domain or fragment, UniProt Q07954 4444-4544, looked up)
chain: YKRRVQGAKGFQHQRMTNGAMNVEIGNPTYKMYEGGEPDDVGGLLDADFALDPDKPTNFTNPVYATLYMGGHGSRHSLASTDEKRELLGRGPEDEIGDPLA
notes: not shown: GST, N-terminal, kept
Consider B3, for which, in test [3], the binding result is on record as “binds”.

B4: Peptide LRP1_(14mer) (peptide)
peptide: 5FAM-MNVEIGNPTYKMYE
notes: as for B1
As to B4, the binding result with MBP-SNX17 L470G, in the test with MBP-SNX17 H457A and with MBP-SNX17 N459A + F462A was “binds” in each case. Besides, in test [1], the Kd stood at 2.2 µM.

B5: Peptide L2_(14mer) (peptide)
peptide: 5FAM-KLITYDNPAYEGID
notes: as for B1
As for B5, binding in test [1] was put at a Kd of 0.6 µM. Further, the binding result with MBP-SNX17 N459A + F462A is reported as “binds”.

B6: GST-L2FBR (domain or fragment)
chain: DPAFVTTPTKLITYDNPAYEGIDVDNTLYF
notes: as for B3
As to B6, the binding result in test [3] is “binds”.

B7: Peptide ITGB1_(P-14mer) (peptide)
peptide: 5FAM-KWDTGENPIYKSAV
notes: also called ITGB1 membrane-proximal site; source: synthetic peptide (GenScript)
As to B7, in test [1], binding was put at a Kd of 72 µM.

B8: Peptide ITGB1_(D-13mer) (peptide)
peptide: 5FAM-AVTTVVNPKYEGK
notes: also called ITGB1 distal site; source: synthetic peptide (GenScript)
Turning to B8, the dissociation constant Kd in test [1] was 125 µM.

B9: MBP-SNX17 W321A (natural protein)
chain: MHFSIPETESRSGDSGGSAYVAYNIHVNGVLHCRVRYSQLLGLHEQLRKEYGANVLPAFPPKKLFSLTPAEVEQRREQLEKYMQAVRQDPLLGSSETFNSFLRRAQQETQQVPTEEVSLEVLLSNGQKVLVNVLTSDQTEDVLEAVAAKLDLPDDLIGYFSLFLVREKEDGAFSFVRKLQEFELPYVSVTSLRSQEYKIVLRKSYWDSAYDDDVMENRVGLNLLYAQTVSDIERGWILVTKEQHRQLKSLQEKVSKKEFLRLAQTLRHYGYLRFDACVADFPEKDCPVVVSAGNSELSLQLRLPGQQLREGSFRVTRMRCARVTSSVPLPSGSTSSPGRGRGEVRLELAFEYLMSKDRLQWVTITSPQAIMMSICLQSMVDELMVKKSGGSIRKMLRRRVGGTLRRSDSQQAVKSPPLLESPDATRESMVKLSSKLSAVSLRGIGSPSTDASASDVHGNFAFEGIGDEDL
notes: as for B11
For the molecule B9, in the test with Retriever complex [4], the binding result is given as “binds”.

B10: MBP-SNX17 V380D (natural protein)
chain: MHFSIPETESRSGDSGGSAYVAYNIHVNGVLHCRVRYSQLLGLHEQLRKEYGANVLPAFPPKKLFSLTPAEVEQRREQLEKYMQAVRQDPLLGSSETFNSFLRRAQQETQQVPTEEVSLEVLLSNGQKVLVNVLTSDQTEDVLEAVAAKLDLPDDLIGYFSLFLVREKEDGAFSFVRKLQEFELPYVSVTSLRSQEYKIVLRKSYWDSAYDDDVMENRVGLNLLYAQTVSDIERGWILVTKEQHRQLKSLQEKVSKKEFLRLAQTLRHYGYLRFDACVADFPEKDCPVVVSAGNSELSLQLRLPGQQLREGSFRVTRMRCWRVTSSVPLPSGSTSSPGRGRGEVRLELAFEYLMSKDRLQWVTITSPQAIMMSICLQSMDDELMVKKSGGSIRKMLRRRVGGTLRRSDSQQAVKSPPLLESPDATRESMVKLSSKLSAVSLRGIGSPSTDASASDVHGNFAFEGIGDEDL
notes: as for B11
In the case of B10, the binding result with Retriever complex [4] was “binds”.
For the molecule B11, the binding result in the test with Retriever complex [4] is on record as “binds”.
